# Results published in paper PMC6737914, “Dissection of GTPase-activating proteins reveals functional asymmetry in the COPI coat of budding yeast” (Journal of Cell Science, 2019).
# Molecular target: T1, TAP-purified coatomer (TAP-tagged β′-COP) (S. cerevisiae, UniProt P53622 1-1201; P41811 1-889; P40509 1-296; P41810 1-973; P32074 1-935; P43621 …)
# T1 construct: α-COP subunit of coatomer, S. cerevisiae; β′-COP subunit of coatomer, S. cerevisiae, TAP-tagged; ε-COP subunit of coatomer, S. cerevisiae; β-COP subunit of coatomer, S. cerevisiae; γ-COP subunit of coatomer, S. cerevisiae; δ-COP subunit of coatomer, S. cerevisiae; ζ-COP subunit of coatomer, S. cerevisiae; The complex was released by TEV cleavage after the incubation with Glo3; also called …
# Experiment: pull-down; TAP-immobilised COPI incubated with a molar excess of MBP-Glo3 (ΔAmpH) for 20 min at 4°C, washed, eluted by TEV cleavage; Coomassie staining and western blots
# Conditions: both partners purified
binder,measurement,value
"MBP-Glo3 (ΔAmpH), Glo3 (1–459) lacking its distal amphipathic helix (domain or fragment, Glo3, S. cerevisiae, residues 1-459, without the distal amphipathic helix (printed as 459–493); After TEV elution of the complex the eluates were incubated with amylose resin to deplete MBP; also called Glo3 lacking a C-terminal amphipathic helix; source: E. coli Rosetta (DE3) or BL21 (pREP4), purified (Ni-IDA resin), dialysed) not shown",binding result,binds
